Consider one substance from patent US20120064064A1.

This test has as its target human IL1-R (human) (UniProt P14778). Put plainly: cell-based or functional assay.
UniProt P14778, sequence (P14778 18-569): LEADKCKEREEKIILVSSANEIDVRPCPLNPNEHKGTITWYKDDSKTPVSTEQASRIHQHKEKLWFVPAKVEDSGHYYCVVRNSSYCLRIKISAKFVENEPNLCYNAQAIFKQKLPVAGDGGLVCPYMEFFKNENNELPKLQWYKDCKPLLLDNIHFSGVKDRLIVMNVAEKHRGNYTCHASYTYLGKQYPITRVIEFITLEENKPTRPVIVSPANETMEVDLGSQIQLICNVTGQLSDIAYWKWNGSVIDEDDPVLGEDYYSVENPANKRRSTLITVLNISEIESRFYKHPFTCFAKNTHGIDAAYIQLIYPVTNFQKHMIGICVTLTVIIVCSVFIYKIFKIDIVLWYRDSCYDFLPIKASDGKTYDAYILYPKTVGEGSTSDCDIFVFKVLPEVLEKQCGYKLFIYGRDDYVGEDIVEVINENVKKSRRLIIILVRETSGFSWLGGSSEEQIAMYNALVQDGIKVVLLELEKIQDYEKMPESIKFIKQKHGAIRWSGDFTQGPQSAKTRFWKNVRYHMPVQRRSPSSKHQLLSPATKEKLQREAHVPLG

Take “natural IL1-R antagonist (IL1-Ra) (from UniProt P18510 26-177) (ligand)”: the IL-8 release assay in MRC-5 cells (IL-1a stimulated), EC50 came out at 0.074 nM.
